Tested on: Escherichia coli TOP10
Assay: shrunken log2 fold change of peptide-encoding DNA abundance (4.5 h post-induction vs induction); higher = less antimicrobial activity (less host growth inhibition)
Settings: time post-induction: 4.5 h; library: site-saturation at positions 5, 18, 19, 20
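Further: peptides expressed intracellularly from a pBAD plasmid library in pooled LB shake-flask culture, induced with 0.3% L-arabinose, DNA abundance read by NGS, three biological replicates, DESeq2 with apeglm shrinkage.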

| Sequence | shrunken log2 fold change |
| --- | --- |
| RRIRVRPPRLPRPRPRPNELPRP | -0.00739 |
| RRIRVRPPRLPRPRPRPNETPRP | -0.033 |
| RRIRVRPPRLPRPRPRPNFAPRP | 0.104 |
| RRIRVRPPRLPRPRPRPNFIPRP | -0.168 |
| RRIRVRPPRLPRPRPRPNLEPRP | 0.0543 |
| RRIRVRPPRLPRPRPRPNLGPRP | -0.185 |
| RRIRVRPPRLPRPRPRPNLQPRP | 0.0671 |
| RRIRVRPPRLPRPRPRPNQVPRP | -0.185 |
| RRIRVRPPRLPRPRPRPNRAPRP | 0.202 |
| RRIRVRPPRLPRPRPRPNRCPRP | -0.364 |
| RRIRVRPPRLPRPRPRPNRYPRP | -0.4 |
| RRIRVRPPRLPRPRPRPNSQPRP | -0.131 |
| RRIRVRPPRLPRPRPRPNTNPRP | -0.421 |
| RRIRVRPPRLPRPRPRPNVAPRP | 0.177 |
| RRIRVRPPRLPRPRPRPNVWPRP | 0.0782 |
| RRIRVRPPRLPRPRPRPNYCPRP | -0.157 |
| RRIRVRPPRLPRPRPRPNYRPRP | 0.0968 |
| RRIRVRPPRLPRPRPRPPCPPRP | 0.0333 |
| RRIRVRPPRLPRPRPRPPDAPRP | 0.254 |
| RRIRVRPPRLPRPRPRPPECPRP | -0.186 |
| RRIRVRPPRLPRPRPRPPEGPRP | 0.582 |
| RRIRVRPPRLPRPRPRPPEWPRP | -0.00654 |

| Sequence | shrunken log2 fold change |
| --- | --- |
| RRIRVRPPRLPRPRPRPPFVPRP | 0.0393 |
| RRIRVRPPRLPRPRPRPPGIPRP | 0.154 |
| RRIRVRPPRLPRPRPRPPHEPRP | 0.42 |
| RRIRVRPPRLPRPRPRPPIGPRP | 0.174 |
| RRIRVRPPRLPRPRPRPPISPRP | 0.0369 |
| RRIRVRPPRLPRPRPRPPKEPRP | 0.0261 |
| RRIRVRPPRLPRPRPRPPKYPRP | -0.416 |
| RRIRVRPPRLPRPRPRPPLSPRP | 0.106 |
| RRIRVRPPRLPRPRPRPPLVPRP | 0.227 |
| RRIRVRPPRLPRPRPRPPMKPRP | -0.117 |
| RRIRVRPPRLPRPRPRPPMLPRP | -0.037 |
| RRIRVRPPRLPRPRPRPPMRPRP | 1.24 |
| RRIRVRPPRLPRPRPRPPNWPRP | 0.293 |
| RRIRVRPPRLPRPRPRPPPEPRP | 0.755 |
| RRIRVRPPRLPRPRPRPPPMPRP | 0.641 |
| RRIRVRPPRLPRPRPRPPPTPRP | 0.933 |
| RRIRVRPPRLPRPRPRPPPYPRP | 0.233 |
| RRIRVRPPRLPRPRPRPPSDPRP | 0.197 |
| RRIRVRPPRLPRPRPRPPSPPRP | 0.417 |
| RRIRVRPPRLPRPRPRPPTPPRP | 0.548 |
| RRIRVRPPRLPRPRPRPPTSPRP | 0.101 |
| RRIRVRPPRLPRPRPRPPVNPRP | 0.159 |

| Sequence | shrunken log2 fold change |
| --- | --- |
| RRIRVRPPRLPRPRPRPPVRPRP | 0.267 |
| RRIRVRPPRLPRPRPRPPWTPRP | 0.223 |
| RRIRVRPPRLPRPRPRPPYAPRP | -0.00506 |
| RRIRVRPPRLPRPRPRPPYEPRP | -0.0422 |
| RRIRVRPPRLPRPRPRPQADPRP | 0.0259 |
| RRIRVRPPRLPRPRPRPQAHPRP | -0.209 |
| RRIRVRPPRLPRPRPRPQAMPRP | -0.00096 |
| RRIRVRPPRLPRPRPRPQDLPRP | -0.0193 |
| RRIRVRPPRLPRPRPRPQFAPRP | 0.133 |
| RRIRVRPPRLPRPRPRPQGEPRP | -0.227 |
| RRIRVRPPRLPRPRPRPQGGPRP | -0.0824 |
| RRIRVRPPRLPRPRPRPQIWPRP | -0.192 |
| RRIRVRPPRLPRPRPRPQKEPRP | -0.178 |
| RRIRVRPPRLPRPRPRPQKSPRP | -0.162 |
| RRIRVRPPRLPRPRPRPQMGPRP | 0.00696 |
| RRIRVRPPRLPRPRPRPQMVPRP | 0.0123 |
| RRIRVRPPRLPRPRPRPQMWPRP | 0.0478 |
| RRIRVRPPRLPRPRPRPQNIPRP | -0.504 |
| RRIRVRPPRLPRPRPRPQQCPRP | 0.145 |
| RRIRVRPPRLPRPRPRPQQTPRP | 0.0227 |
| RRIRVRPPRLPRPRPRPQQVPRP | -0.0278 |
| RRIRVRPPRLPRPRPRPQSVPRP | -0.0666 |

| Sequence | shrunken log2 fold change |
| --- | --- |
| RRIRVRPPRLPRPRPRPQWTPRP | -0.17 |
| RRIRVRPPRLPRPRPRPQYEPRP | -0.174 |
| RRIRVRPPRLPRPRPRPQYGPRP | -0.0699 |
| RRIRVRPPRLPRPRPRPRAPPRP | 0.831 |
| RRIRVRPPRLPRPRPRPRCGPRP | -0.0269 |
| RRIRVRPPRLPRPRPRPRCVPRP | 0.0659 |
| RRIRVRPPRLPRPRPRPREQPRP | 0.0561 |
| RRIRVRPPRLPRPRPRPRFTPRP | -0.0651 |
| RRIRVRPPRLPRPRPRPRGEPRP | 0.254 |
| RRIRVRPPRLPRPRPRPRGGPRP | 0.609 |
| RRIRVRPPRLPRPRPRPRGSPRP | 0.527 |
| RRIRVRPPRLPRPRPRPRHEPRP | 0.193 |
| RRIRVRPPRLPRPRPRPRIAPRP | 0.0659 |
| RRIRVRPPRLPRPRPRPRKKPRP | 0.0671 |
| RRIRVRPPRLPRPRPRPRLFPRP | 0.447 |
| RRIRVRPPRLPRPRPRPRLKPRP | 3.13 |
| RRIRVRPPRLPRPRPRPRLLPRP | 0.0401 |
| RRIRVRPPRLPRPRPRPRLSPRP | 0.0321 |
| RRIRVRPPRLPRPRPRPRMLPRP | -0.103 |
| RRIRVRPPRLPRPRPRPRMRPRP | 0.873 |
| RRIRVRPPRLPRPRPRPRMSPRP | -0.079 |
| RRIRVRPPRLPRPRPRPRPSPRP | 0.382 |

| Sequence | shrunken log2 fold change |
| --- | --- |
| RRIRVRPPRLPRPRPRPRPTPRP | 0.268 |
| RRIRVRPPRLPRPRPRPRQRPRP | 0.622 |
| RRIRVRPPRLPRPRPRPRTEPRP | 0.165 |
| RRIRVRPPRLPRPRPRPRVQPRP | 0.328 |
| RRIRVRPPRLPRPRPRPRYCPRP | -0.144 |
| RRIRVRPPRLPRPRPRPRYDPRP | -0.0252 |
| RRIRVRPPRLPRPRPRPRYYPRP | -0.0159 |
| RRIRVRPPRLPRPRPRPSAHPRP | -0.0182 |
| RRIRVRPPRLPRPRPRPSANPRP | 0.122 |
| RRIRVRPPRLPRPRPRPSCTPRP | -0.175 |
| RRIRVRPPRLPRPRPRPSGQPRP | 0.0937 |
| RRIRVRPPRLPRPRPRPSHVPRP | -0.0313 |
| RRIRVRPPRLPRPRPRPSIHPRP | -0.755 |
| RRIRVRPPRLPRPRPRPSIMPRP | -0.451 |
| RRIRVRPPRLPRPRPRPSKDPRP | -0.563 |
| RRIRVRPPRLPRPRPRPSKSPRP | -0.172 |
| RRIRVRPPRLPRPRPRPSNKPRP | -0.751 |
| RRIRVRPPRLPRPRPRPSPDPRP | -0.226 |
| RRIRVRPPRLPRPRPRPSPKPRP | 0.24 |
| RRIRVRPPRLPRPRPRPSQAPRP | 0.0916 |
| RRIRVRPPRLPRPRPRPSSLPRP | -0.334 |
